The values that follow come from publication PMC12394453 (Signal Transduction and Targeted Therapy, 2025).

Holding throughout (conditions): both partners purified
In experiment [1] the target is NiV-G head domain (crystallisation construct, deglycosylated) (Nipah virus, NP_112027 / Q9IH62 …). Briefly: crystal structure.
The target of experiment [2] is T1, HeV-G (wild-type Hendra virus attachment glycoprotein G, soluble recombinant) (Hendra virus, UniProt O89343).
T1 construct: source: Expi-293F, purified (StrepTrap HP)
Briefly: SPR.

The target of experiment [3] is deglycosylated NiV-G (N-linked glycans removed with PNGase F) (Nipah virus, Bangladesh isolate …, UniProt Q4VCP5, strain, N-linked glycans removed with PNGase F). Briefly: SPR; Biacore T200; antibody (0.5 μg/mL in HBS-EP+) […]; association 120 s, dissociation 900 s. (In SPR one partner is held on a chip, and binding of the other changes the refractive index at the surface.)

B1: 14F8 Fab (Fab, V domains shown)
VH: QVQLKESGPGLVAPSQSLSITCTVSGFSLTSYDISWIRQPPGKGLEWLGVIWTGGVTNYNSAFLSRLSISKDNSKSQVFLKMNSLQTDDTAIYYCVREGDWFFDVWGAGTTVTVSS
VL: DVLMTQTPLSLPVSLGDQASISCRSSQSIVHSNGNTYLEWYLQKPGQSPQLLIYKVSNRFSGVPDRFSGSGSGTDFTLKINRVEAEDLGLYYCFQASHVPYTFGGGTKLEIK
notes: also called 14F8 Fab fragment
For B1, in experiment [1], the binding result is “binds”.

B2: chimeric antibody 14F8 (variable regions of mouse m14F8 on a human IgG1 constant region backbone) (antibody, V domains shown)
VH: QVQLKESGPGLVAPSQSLSITCTVSGFSLTSYDISWIRQPPGKGLEWLGVIWTGGVTNYNSAFLSRLSISKDNSKSQVFLKMNSLQTDDTAIYYCVREGDWFFDVWGAGTTVTVSS
VL: DVLMTQTPLSLPVSLGDQASISCRSSQSIVHSNGNTYLEWYLQKPGQSPQLLIYKVSNRFSGVPDRFSGSGSGTDFTLKINRVEAEDLGLYYCFQASHVPYTFGGGTKLEIK
notes: also called Humanized 14F8; m14F8 (mouse parent)
Turning to B2, the values for the binding result in experiment [2] and in experiment [3] were “no binding (tested: 100 nM)” and “binds”, respectively.
